This passage reports Kd results from PMC6471432, “The 3′ Untranslated Region of a Plant Viral RNA Directs Efficient Cap-Independent Translation in Plant and Mammalian Systems”.

Data set [1] concerns the target T1, human eIF4E (Homo sapiens, UniProt P06730 1-217). Briefly: EMSA; EMSA: 10 mM HEPES pH 7.5, 20 mM KCl, 1 mM DTT, 3 mM MgCl2, 1 ug/uL tRNA, 0.5 ug/uL BSA, 1 U/uL RNaseOUT, 5% glycerol, 10 uL, 25 min on ice, gel at 4 C; SHAPE: benzoyl cyanide, 22 C. To be noted: protein: recombinant; label: 32P; pseudoknot between C and G domains.
Data set [2] concerns the target T1, human eIF4E. Description: EMSA; text: not shifted by 2 uM; EMSA: 10 mM HEPES pH 7.5, 20 mM KCl, 1 mM DTT, 3 mM MgCl2, 1 ug/uL tRNA, 0.5 ug/uL BSA, 1 U/uL RNaseOUT, 5% glycerol, 10 uL, 25 min on ice, gel at 4 C; SHAPE: benzoyl cyanide, 22 C. The settings on record: protein: recombinant; label: 32P; pseudoknot between C and G domains; three bands without protein.

T1 sequence (P06730 whole entry): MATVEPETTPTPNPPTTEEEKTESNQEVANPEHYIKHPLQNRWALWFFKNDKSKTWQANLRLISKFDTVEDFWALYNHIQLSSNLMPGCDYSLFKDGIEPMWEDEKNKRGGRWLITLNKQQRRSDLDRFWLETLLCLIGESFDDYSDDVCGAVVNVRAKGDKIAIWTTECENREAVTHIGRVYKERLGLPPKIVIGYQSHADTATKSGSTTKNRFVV

B1: PEMV2 PTE capped (structured_RNA)
RNA: GUAGUGGUAGAACACGUGGGAUAGGGGAUGACCUUGUCGACCGGUUAUCGGUCCCCUGCUCCUUCGAGCUGGCAAGGCGCUCACAGGUUCUACACUGCUACUA
modifications: 5' cap
For B1, the Kd in data set [1] came out at 285 ± 33 nM.

B2: PEMV2 PTE uncapped (structured_RNA)
RNA: B1 RNA
With B2, the Kd in data set [2] is 2520 ± 435 nM.

B3: TPAV PTE capped (structured_RNA)
RNA: GGACAAGACCCCAGGCGGGACGCCACACCCAUGUUUGCAGACAUGGCCCGAGGAAACUCUGGUGUGGGCUGGGGGGAAUCC
modifications: 5' cap
Regarding B3, in data set [1], the Kd turned out to be 160 ± 1 nM.

B4: TPAV PTE uncapped (structured_RNA)
RNA: B3 RNA
On to B4, for which, in data set [1], the Kd was 838 ± 124 nM.
